This assay concerns the target T1, Smc4 (S. cerevisiae (budding yeast), UniProt Q12267 1-1418).
T1 construct: Smc4, subunit of the budding yeast condensin complex; The holo-complex was purified over HisTrap and Strep-Tactin; also called condensin subunit Smc4
T1 sequence (looked up): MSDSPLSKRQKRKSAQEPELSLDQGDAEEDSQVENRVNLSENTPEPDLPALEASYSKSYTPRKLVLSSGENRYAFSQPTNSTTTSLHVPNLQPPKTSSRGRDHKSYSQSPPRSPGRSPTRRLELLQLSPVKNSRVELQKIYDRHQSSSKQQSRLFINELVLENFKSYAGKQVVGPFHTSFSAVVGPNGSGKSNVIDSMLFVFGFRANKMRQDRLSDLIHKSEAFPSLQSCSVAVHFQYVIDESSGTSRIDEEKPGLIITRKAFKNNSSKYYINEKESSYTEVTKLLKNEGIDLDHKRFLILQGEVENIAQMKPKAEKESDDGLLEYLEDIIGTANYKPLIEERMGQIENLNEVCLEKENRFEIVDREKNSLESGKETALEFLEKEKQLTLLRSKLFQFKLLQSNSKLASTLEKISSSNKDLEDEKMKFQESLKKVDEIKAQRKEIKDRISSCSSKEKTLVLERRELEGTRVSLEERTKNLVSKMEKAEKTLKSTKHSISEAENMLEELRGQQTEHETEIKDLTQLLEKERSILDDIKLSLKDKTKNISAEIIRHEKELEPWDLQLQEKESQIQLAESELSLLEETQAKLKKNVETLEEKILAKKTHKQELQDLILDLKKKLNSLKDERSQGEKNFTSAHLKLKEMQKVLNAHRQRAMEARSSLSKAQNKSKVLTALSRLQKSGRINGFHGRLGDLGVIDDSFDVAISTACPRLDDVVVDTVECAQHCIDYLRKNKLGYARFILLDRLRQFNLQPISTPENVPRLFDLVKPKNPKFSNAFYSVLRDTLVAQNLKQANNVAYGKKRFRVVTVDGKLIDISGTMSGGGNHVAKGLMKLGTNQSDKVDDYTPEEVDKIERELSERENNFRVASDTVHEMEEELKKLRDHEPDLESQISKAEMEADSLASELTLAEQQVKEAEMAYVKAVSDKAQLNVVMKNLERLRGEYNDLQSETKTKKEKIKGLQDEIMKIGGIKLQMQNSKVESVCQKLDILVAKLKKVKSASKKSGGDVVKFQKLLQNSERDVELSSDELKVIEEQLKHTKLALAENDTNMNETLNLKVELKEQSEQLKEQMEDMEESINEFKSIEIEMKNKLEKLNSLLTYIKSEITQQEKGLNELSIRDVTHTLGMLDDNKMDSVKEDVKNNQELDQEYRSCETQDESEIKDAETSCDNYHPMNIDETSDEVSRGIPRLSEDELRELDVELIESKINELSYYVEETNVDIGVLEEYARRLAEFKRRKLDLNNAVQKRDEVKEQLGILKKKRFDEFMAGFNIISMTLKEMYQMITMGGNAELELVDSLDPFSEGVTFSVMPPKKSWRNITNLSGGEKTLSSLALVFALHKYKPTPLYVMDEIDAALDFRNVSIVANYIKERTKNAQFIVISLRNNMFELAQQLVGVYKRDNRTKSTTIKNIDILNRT
The assay is described as follows: high-speed atomic force microscopy (HS-AFM); 1 nM purified condensin holo-complex on bare mica in 40 mM Tris-HCl pH7.5, 125 mM KCl, 10 mM MgCl2, 1 mM DTT, 4 mM ATP; room temperature; 150 ms/frame; 36 molecules observed. The conditions noted are these: both partners purified.

B1: Smc2 (natural protein, S. cerevisiae (budding yeast), UniProt P38989 1-1170, looked up)
chain: MKVEELIIDGFKSYATRTVITDWDPQFNAITGLNGSGKSNILDAICFVLGIASMSTVRASSLQDLIYKRGQAGVTKASVTIVFDNTDKSNSPIGFTNSPQISVTRQVVLGGTSKYLINGHRAPQQSVLQLFQSVQLNINNPNFLIMQGKITKVLNMKPSEILSLIEEAAGTKMFEDRREKAERTMSKKETKLQENRTLLTEEIEPKLEKLRNEKRMFLEFQSTQTDLEKTERIVVSYEYYNIKHKHTSIRETLENGETRMKMLNEFVKKTSEEIDSLNEDVEEIKLQKEKELHKEGTISKLENKENGLLNEISRLKTSLSIKVENLNDTTEKSKALESEIASSSAKLIEKKSAYANTEKDYKMVQEQLSKQRDLYKRKEELVSTLTTGISSTGAADGGYNAQLAKAKTELNEVSLAIKKSSMKMELLKKELLTIEPKLKEATKDNELNVKHVKQCQETCDKLRARLVEYGFDPSRIKDLKQREDKLKSHYYQTCKNSEYLKRRVTNLEFNYTKPYPNFEASFVHGVVGQLFQIDNDNIRYATALQTCAGGRLFNVVVQDSQTATQLLERGRLRKRVTIIPLDKIYTRPISSQVLDLAKKIAPGKVELAINLIRFDESITKAMEFIFGNSLICEDPETAKKITFHPKIRARSITLQGDVYDPEGTLSGGSRNTSESLLVDIQKYNQIQKQIETIQADLNHVTEELQTQYATSQKTKTIQSDLNLSLHKLDLAKRNLDANPSSQIIARNEEILRDIGECENEIKTKQMSLKKCQEEVSTIEKDMKEYDSDKGSKLNELKKELKLLAKELEEQESESERKYDLFQNLELETEQLSSELDSNKTLLHNHLKSIESLKLENSDLEGKIRGVEDDLVTVQTELNEEKKRLMDIDDELNELETLIKKKQDEKKSSELELQKLVHDLNKYKSNTNNMEKIIEDLRQKHEFLEDFDLVRNIVKQNEGIDLDTYRERSKQLNEKFQELRKKVNPNIMNMIENVEKKEAALKTMIKTIEKDKMKIQETISKLNEYKRETLVKTWEKVTLDFGNIFADLLPNSFAKLVPCEGKDVTQGLEVKVKLGNIWKESLIELSGGQRSLIALSLIMALLQFRPAPMYILDEVDAALDLSHTQNIGHLIKTRFKGSQFIVVSLKEGMFANANRVFRTRFQDGTSVVSIM
notes: Smc2, subunit of the budding yeast condensin complex; The holo-complex was purified over HisTrap and Strep-Tactin; also called condensin subunit Smc2
For B1, the binding result was “binds”.
